# According to article PMC11840927, “Frataxin Traps Low Abundance Quaternary Structure to Stimulate Human Fe–S Cluster Biosynthesis” (Biochemistry, 2025):
# B1: Escherichia coli acyl-carrier protein (natural protein)
# chain: MSTIEERVKKIIGEQLGVKQEEVTNNASFVEDLGADSLDTVELVMALEEEFDTEIPDEEAEKITTVQAAIDYINGHQA
# modifications: acyl-4′PPT (assumed mass 523 Da)
# notes: Escherichia coli acyl-carrier protein (ACPec) associated with NFS1-ISD11; The ACP chain of m1; also called ACPec; ACP; source: co-purified within the SDAec complex
# How the values were obtained:
# [1] = molecular target: SDAec complex with the Q64S, P299H, L300Q NFS1 triple variant (human | Escherichia coli) (UniProt Q9Y697)
# [2] = molecular target: T1, NFS1(Δ1–55) with N-terminal His6 tag (human, UniProt Q9Y697 56-457, covalently attached PLP); assay: native MS; protomer exchange: 1:1 mix of 15N- and 14N-labelled SDAec (or His-tagged and untagged IscS), room temperature, 200 mM ammonium acetate pH 8.5, EMR Orbitrap; ratio of exchanged dimer to the sum of unexchanged dimers; α2β2γ2 (or IscS dimer) to protomers and back; details: both partners purified
# T1 construct: NFS1, human cysteine desulfurase, Δ1–55 (residues 56 to the C-terminus); The NFS1 chain of m1; also called α subunit; source: recombinant, co-purified within the SDAec complex; not shown: His6, N-terminal, kept
Molecule,FXN-stimulated cysteine desulfurase activity (μM S^2–/min·μM NFS1) [1],binding result [2]
FXN (Δ1–81) (from UniProt Q16595 82-210) (natural protein),8,–
B1,–,binds
